In this assay the target is 抗Cry1Ab单克隆抗体. Put plainly: indirect competitive ELISA (chemiluminescence), anti-Cry1Ab mAb coated at 10 μg/mL; competitor: Cry1Ab mimic nanobody (phage 1.0×10^11 pfu or protein 10 μg/mL). Background: In an ELISA, binding on a coated surface is turned into a signal by an enzyme label.

Consider one substance from patent CN108101970A.

The term IC50 denotes the concentration that gives 50% inhibition. A lower IC50 goes with higher potency.

Cry1Ab标准品 (from UniProt P0A370 29-607) yielded an IC50 of 0.0427 µg/mL.
